These results are taken from patent publication US20260043020A1, “BINDING MEMBERS WITH ALTERED DIVERSITY SCAFFOLD DOMAINS” (priority 2016, published 2026).

The target in one test is T1, human ASIC1a (human) (UniProt P78348).
T1 sequence (looked up): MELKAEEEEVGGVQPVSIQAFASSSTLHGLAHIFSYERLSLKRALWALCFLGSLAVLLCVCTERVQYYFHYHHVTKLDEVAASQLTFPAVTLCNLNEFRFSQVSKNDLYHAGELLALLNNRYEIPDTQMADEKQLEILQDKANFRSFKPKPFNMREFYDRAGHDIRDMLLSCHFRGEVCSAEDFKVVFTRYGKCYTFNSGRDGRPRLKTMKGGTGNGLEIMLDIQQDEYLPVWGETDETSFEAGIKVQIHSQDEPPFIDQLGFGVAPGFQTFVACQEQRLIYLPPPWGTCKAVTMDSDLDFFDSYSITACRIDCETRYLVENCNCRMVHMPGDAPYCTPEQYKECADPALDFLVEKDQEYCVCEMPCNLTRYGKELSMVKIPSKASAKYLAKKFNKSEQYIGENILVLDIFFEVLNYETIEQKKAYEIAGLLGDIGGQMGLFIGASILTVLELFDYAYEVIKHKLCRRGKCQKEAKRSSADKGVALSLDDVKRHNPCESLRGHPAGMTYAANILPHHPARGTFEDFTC
The test can be described thus: cell-based or functional assay.

The next test deals with human Kv 1.3 (human) (UniProt P22001). The test can be described thus: cell-based or functional assay.
A further test addresses β-galactosidase. Kind of test: monoclonal phage TRF ELISA on B-galactosidase.
The target in test [1] is trypsin. Kind of test: flow cytometry of HEK293 cells 15 days post transfection, biotinylated trypsin/streptavidin-APC (FL4) against anti-Fc-PE (FL2). On the technique in general: Flow cytometry measures light scatter and fluorescence of single cells or particles in a stream.
Test [2] has as its target trypsin. Kind of test: flow cytometry, biotinylated trypsin with streptavidin-APC.

Sequence of human Kv 1.3 (human) (P22001 whole entry): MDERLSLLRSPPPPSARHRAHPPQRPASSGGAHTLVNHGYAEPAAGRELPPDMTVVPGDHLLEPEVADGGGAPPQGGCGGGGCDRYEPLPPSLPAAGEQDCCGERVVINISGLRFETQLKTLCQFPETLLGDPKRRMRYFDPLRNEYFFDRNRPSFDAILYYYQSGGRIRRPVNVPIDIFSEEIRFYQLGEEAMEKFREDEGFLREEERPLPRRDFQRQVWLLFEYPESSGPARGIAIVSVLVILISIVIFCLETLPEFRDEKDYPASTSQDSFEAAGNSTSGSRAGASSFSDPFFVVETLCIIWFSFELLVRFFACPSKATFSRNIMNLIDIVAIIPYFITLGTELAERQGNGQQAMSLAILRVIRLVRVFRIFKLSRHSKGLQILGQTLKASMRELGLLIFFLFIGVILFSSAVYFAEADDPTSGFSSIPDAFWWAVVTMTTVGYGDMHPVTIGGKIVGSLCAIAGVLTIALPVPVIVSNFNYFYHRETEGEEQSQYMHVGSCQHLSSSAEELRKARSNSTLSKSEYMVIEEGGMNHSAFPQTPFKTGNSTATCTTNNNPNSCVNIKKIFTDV
Sequence of β-galactosidase (P00722 2-1024): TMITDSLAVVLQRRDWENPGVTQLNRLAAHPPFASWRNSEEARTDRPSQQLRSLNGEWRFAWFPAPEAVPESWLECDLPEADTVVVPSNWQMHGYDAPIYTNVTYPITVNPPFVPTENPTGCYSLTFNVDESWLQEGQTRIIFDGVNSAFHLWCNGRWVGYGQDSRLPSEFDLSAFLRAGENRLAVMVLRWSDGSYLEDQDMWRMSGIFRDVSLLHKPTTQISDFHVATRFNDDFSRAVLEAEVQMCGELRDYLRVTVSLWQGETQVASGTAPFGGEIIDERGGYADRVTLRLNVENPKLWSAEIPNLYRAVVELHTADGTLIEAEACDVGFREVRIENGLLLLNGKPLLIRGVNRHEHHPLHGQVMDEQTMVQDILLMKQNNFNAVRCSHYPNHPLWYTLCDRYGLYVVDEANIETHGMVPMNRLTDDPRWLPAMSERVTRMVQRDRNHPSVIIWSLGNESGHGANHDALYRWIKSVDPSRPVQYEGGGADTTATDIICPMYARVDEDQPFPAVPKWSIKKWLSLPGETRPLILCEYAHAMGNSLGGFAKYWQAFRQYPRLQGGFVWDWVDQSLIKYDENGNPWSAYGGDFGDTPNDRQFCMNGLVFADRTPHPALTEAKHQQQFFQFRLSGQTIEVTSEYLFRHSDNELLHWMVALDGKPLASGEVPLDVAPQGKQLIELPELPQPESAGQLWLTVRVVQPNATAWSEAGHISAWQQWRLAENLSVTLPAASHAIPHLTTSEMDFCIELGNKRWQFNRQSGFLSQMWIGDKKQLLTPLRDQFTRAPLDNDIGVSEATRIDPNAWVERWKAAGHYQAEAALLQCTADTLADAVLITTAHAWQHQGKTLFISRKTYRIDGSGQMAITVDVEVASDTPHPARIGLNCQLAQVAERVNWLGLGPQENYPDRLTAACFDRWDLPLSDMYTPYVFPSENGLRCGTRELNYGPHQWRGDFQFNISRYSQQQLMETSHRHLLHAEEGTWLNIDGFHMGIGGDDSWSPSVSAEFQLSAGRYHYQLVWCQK

B1: KB_A07 IgG1 (EETI-II fusion, isotype control) (antibody, V domains shown)
VH: EVQLVESGGGLVRPGGSLRLSCAASGFTFSSYAMSWVRQAPGKGLEWVSAISGSGGSTYYADSVKGRFTISRDNTKNSLYLQMTSLRADDTAFYYCVKDFGPGYGTGWFDYWGPGTLVTVSS
VL: YLNWYQQKPGKAPKLLIYAAGVCPRILMRCKQDSDCLAGCVCGPNGFCGSRSGVPSRFSGSGSGTDFTLTISSLQPEDFATYYCQQGASPPYTFGQGTKVEIKR
As to B1, the % ASIC1a current remaining, 6 µM KnotBody (QPatch, HEK293 cells) with human ASIC1a (human) came to 70.9%. Also, the IC50, inhibition of huKv1.3 currents (QPatch, CHO cells) in the test with human Kv 1.3 (human) was > 10 µM.

B2: KB_A07 MoKa-1 fusion (antibody, V domains shown)
VH: B1 VH
VL: DIQMTQSPSSLSASVGDRVTITCRASQSISSYLNWYQQKPGKAPKLLIYAAGVINVKCSLPQQCIKPCKDAGMRFGKCMNKKCRCYSSRSGVPSRFSGSGSGTDFTLTISSLQPEDFATYYCQQGASPPYTFGQGTKVEIKRT
B2: the IC50, inhibition of huKv1.3 currents (QPatch, CHO cells) with human Kv 1.3 (human) was > 10 µM.

B3: KB_A07_Kaliotoxin (KTX) (antibody, V domains shown)
VH: B1 VH
VL: DIQMTQSPSSLSASVGDRVTITCRASQSISSYLNWYQQKPGKAPKLLIYAAGVGVEINVKCSGSPQCLKPCKDAGMRFGKCMNRKCHCTPKSRSGVPSRFSGSGSGTDFTLTISSLQPEDFATYYCQQGASPPYTFGQGTKVEIKR
On to B3, for which the IC50, inhibition of huKv1.3 currents (QPatch, CHO cells) in the test with human Kv 1.3 (human) came to 0.9 µM.

B4: KB A12_B-gal_F07 (scFv, V domains shown)
VH: B1 VH
VL: AVNWYQQLPGKAPKLLIYAAGRCRTTANVRRHCKQDSDCLAGCVCGPNGFCGANSGVSDRFSAAKSGTSASLAINGLRSEDEADYYCAAWDDSLNGYVFGTGTKLTVLG
B4: in the test with β-galactosidase, the TRF signal turned out to be 246000.

B5: KB_A12 Kaliotoxin (KTX) fusion (antibody)
VH: B1 VH
VL: QSVLTQPPSVSEAPRQRVTITCSGSSSNIGNNAVNWYQQLPGKAPKLLIYAAGRGVEINVKCSGSPQCLKPCKDAGMRFGKCMNRKCHCTPKANSGVSDRFSAAKSGTSASLAINGLRSEDEADYYCAAWDDSLNGYVFGTGTKLTVLGQP
For the molecule B5, the IC50, inhibition of huKv1.3 currents (QPatch, CHO cells) in the test with human Kv 1.3 (human) is > 10 µM.

B6: KB_A12 IgG1 (EETI-II fusion, isotype control) (antibody, V domains shown)
VH: B1 VH
VL: AVNWYQQLPGKAPKLLIYAAGRCPRILMRCKQDSDCLAGCVCGPNGFCGANSGVSDRFSAAKSGTSASLAINGLRSEDEADYYCAAWDDSLNGYVFGTGTKLTVLG
In the test with human ASIC1a (human), B6 displayed a % ASIC1a current remaining, 3.3 µM KnotBody (QPatch, HEK293 cells) of 67.4%. For the same molecule, the IC50, inhibition of huKv1.3 currents (QPatch, CHO cells) with human Kv 1.3 (human) is > 10 µM.

B7: KB_A07 scFv-Fc, membrane anchored on HEK293 cells (Fc fusion)
VH: B1 VH
VL: DIQMTQSPSSLSASVGDRVTITCRASQSISSYLNWYQQKPGKAPKLLIYAAGVCPRILMRCKQDSDCLAGCVCGPNGFCGSRSGVPSRFSGSGSGTDFTLTISSLQPEDFATYYCQQGASPPYTFGQGTKVEIKRT
B7: in the test with trypsin [1], the cells in Q1 (trypsin/streptavidin-APC positive, anti-Fc-PE negative) amounted to 3.65%; the cells in Q2 (anti-Fc-PE positive and trypsin/streptavidin-APC positive) came out at 33.8%; the cells in Q3 (anti-Fc-PE positive, trypsin/streptavidin-APC negative) worked out at 11.1%. This molecule also showed a % of transfected HEK293 cells dual stained for Fc and trypsin with trypsin [2] of 34%.

B8: KB_A12_Shk (antibody, V domains shown)
VH: B1 VH
VL: NWYQQLPGKAPKLLIYAAGRRSCIDTIPKSRCTAFQCKHSMKYRLSFCRKTCGTCANSGVSDRFSAAKSGTSASLAINGLRSEDEADYYCAAWDDSLNGYVFGTGTKLTVLG
For the molecule B8, in the test with human Kv 1.3 (human), the IC50, inhibition of huKv1.3 currents (QPatch, CHO cells) amounted to 0.02 µM.

B9: KB_A12 scFv-Fc, membrane anchored on HEK293 cells (Fc fusion)
VH: B1 VH
VL: QSVLTQPPSVSEAPRQRVTITCSGSSSNIGNNAVNWYQQLPGKAPKLLIYAAGRCPRILMRCKQDSDCLAGCVCGPNGFCGANSGVSDRFSAAKSGTSASLAINGLRSEDEADYYCAAWDDSLNGYVFGTGTKLTVLGQP
In the case of B9, in the test with trypsin [1], the cells in Q1 (trypsin/streptavidin-APC positive, anti-Fc-PE negative) is 1.54%; the cells in Q2 (anti-Fc-PE positive and trypsin/streptavidin-APC positive) came to 11.2%; the cells in Q3 (anti-Fc-PE positive, trypsin/streptavidin-APC negative) is 3.78%. The molecule also showed a % of transfected HEK293 cells dual stained for Fc and trypsin with trypsin [2] of 11%.
